Results published in the nanobody polyreactivity screen of Harvey et al. (2022).

Assay: yeast display, Sf9 membrane polyspecificity reagent, FACS + sequencing; frameworks hold sequencing errors
In short: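 In a synthetic yeast display library (Saccharomyces cerevisiae BJ5465), nanobody expression was induced with galactose for 36–48 hours. FACS gates were set low and high (top ~1%) using anti-HA fluorescence for expression and streptavidin fluorescence for binding of the Sf9 membrane reagent. Each polyreactivity label is drawn from the gate of origin.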

| Sequence | polyreactivity (PSR sort gate) |
| --- | --- |
| QVQLVESGGGLVQAGGSLRLSCAASGFTFTRYTMGWYRQAPGKERELVAAITSGGRTNYADSVKGRFTISRDNAKNTVYLQMNSLKPEDTAVYYCAARYVYYWAYGNEYWGHGTQVTVSS | high polyreactivity |
| QVQLVESGGGLVQAGGSLRLSCAASGRIFVPYAMGWYRQAPGKERELVAAISRNTGSTYYADSVKGRFTISRDNAKNTVYLQMNSLKPEDTAVYYCAAGSRVRYDGGYKINGYWGQGTQVTVSS | high polyreactivity |
| QVQLVESGGGLVQAGGSLRLSCAASGSIFRYYAMGWYRQAPGKERELVAGISRSGGSTYYADSEKGRFTISRDNAKNTVYLQMNSLKPEDTAVYYCAATAYSPRGKRYDSWGQVTQVTVSS | high polyreactivity |
| QVQLVESGGGLVQAGGSLRLSCAASGLTFNYYAMGWYRQAPGKERELVASISKRGGTYYADSVKGRFTLSRDNAKNTVYLQMNSLKPEDTAVYYCAADYWFRRNEYDYWGQGTQVTVSS | high polyreactivity |
| QVQLVESGGGLVQAGGSLRLSCAASGLIFQYYAMGWYRPAPGKERELVAAISSDGNTYYADSVKGRFTISRDNAKNTVYLQMNSLKPEDTAVYYCAADWYIAYSEYGYWGQGTKVTVSS | low polyreactivity |
| QVQLQESGGGLVQAGGSLLSCAASGTISYYREMGWSRQSPGKQRELVAGIGVGTITYYADSVKGRFTISRDNAKKTVFLQMNSLNPEDTAVYYCAAHIDGNDSHAYWGQGTQVTVSS | low polyreactivity |
| QVQLVESGGGLVQAGGSLRLSCAASGRTFATNAMGWYRQAPGKERELVAAITSRGGSTYYADSVKGRFTISRDNAKNTVYLQMNSLKPEDTAVYYCAAETSPSWYTWVTYDYWGQGTQVTVSS | high polyreactivity |
| QVQLVESGGGLVQAGGSLRLSCAASGGIFSLYAMGWYRQAPGKEREFVAAISFTGASTYYADSVKGRFTISRDNAKNTVYLQMNSLKPEDTAVYYCAAYWDAEGRRYTRLDYWGQGTQVTLSS | low polyreactivity |
| QVQLQVSGGDLVQAGGSLRLSCEASGTIYGLTSMGWYRQAPGKEREFVAAITDGGNTNYADSVKGRFTISRDNAKNTVYLQMISLKPEDTGVYYCAVLFSDDAYYAYWGQGTQVTVSS | low polyreactivity |
| QVQLVESGGGLVQAGGSLRLSCAASGRNFGWYAMGWYRQATGKERELVAAITSGSRTSYADSVKGRFTISRDNAKNTVYLQMNSLKPEDTAVYYCARRSYGIYYRSADDSWGQGTQVTVSS | high polyreactivity |
| QVQLVESGGGLVQAGGSLRLSCAASGSTFAGNAIGWYRQAPGKERELVAAIDSSTGSTYYADSVKGRFTISRDNAKNTVFLQMNSLKPEDTAVYYCNKTSFLVNLDYWGQGTQVTVSS | low polyreactivity |
| QVQLVESGGGLVQAGGSLRLSCAASGIIFYWNAMGWYRQAPGKEREFVASISGSGGSTYADSVKGRFTISRDNAKKTVYLQMNSLKPEDTAVYYCAADFSNVGVQHDYYWGQGTQVTVSS | high polyreactivity |
| QVQVVESGGGLVQAGGSLRLSCAASGSIFVYYTMGWYRQAPGKERELVAAITRGGRTNFADSVKGRFTISRDNAQNSVYLLMNSLNPEDTAVYYCAKGYYWLSTYGDSRYGYWGQGTQVTVSS | high polyreactivity |
| QVQLVESGGGLVQAGGSLRLSCAASGIIFYYYTMGWYRQAPGKERELVASISRDGGSTHYADSVKGRFTISRDNAKNTVYLLMNSLKPEDTAVYYCAARDPTGSSYAFYRRKVYYWGQGTQVTVSS | high polyreactivity |
| QVQVVESGGGLVQAGGSLRLSCAASGSTFYINAIGWYRQAPGNERELVAAIYFRGGSTYYADSVKGRFPISRDNAKNTVYVKMNSLKPEVTAVYYCAAYYYFFRRYSWRLSCDYWGQGTQVTVSS | low polyreactivity |
| QVQLVESGGGLVQAGGSHRLSCAASGSTFNLNAMGWYRQAPGKERELVAAIDSGGRTNYADSVKGRFTISRDNAKNTVYLQMNSLKPEDTAVYYCADDVYAYPGSWYDYWGQGTQVTVSS | low polyreactivity |

| Sequence | polyreactivity (PSR sort gate) |
| --- | --- |
| QVQLVESGGGLVQAGGSLRLSCAASGSIFVYYAMGWYRQAPGNERELVAAINNGGSTTYADSVKGRFTISRDNAKNTVYLQMNSLKPEDTAVYYCAADLEPRTNAPGLPTPDGYYWGQGTQVTVSS | low polyreactivity |
| QVQLVESGGGLVQAGGSLRLSCAASGYTFNDYAMGWYRQARGKERELVASISSGGSTYYADSVKGRFTISRDNAKNTVYLQMNSLKPEDTAVYYCAAEWHYIYAYDYWGQGTQVTVSS | low polyreactivity |
| QVQLVESGGGLVQAGGSLRLSCAASGRTFRKYAMGWYRQAPGKERELVAGITSIGGRTYYADSVKGRFTISRDNAKNTVYLQMNSLKPEDTAVYYCAAEPYGGGVKHSAYDYCGQGTQVTVSS | low polyreactivity |
| QVQLVESGGGLVQAGGSLRLSCAASGSIFDNNAMGSYRQAPGKERELVAGINWDDGSTYYADSVKGRFTISRDNAKNTVHLQMISLKPEETAVYYCARDVYVYRWNDFWAVWTWYDYWGQGTQVTVSS | low polyreactivity |
| QVQLVESGGGLVQAGGSLRLSCAASGRTFYFYTKGWYRQAPGKERELVATAITSGGSTNYADSVKGRFTISRDNAKNTVYLQMNSLKPEDTAVYYCNARYTYLWSSLYYWGQGTQVTVSS | low polyreactivity |
| QVQLVESGGGLVQAGGSLRLSCAASGRSLHHYAMGWYSQAPGKERELVAAIRWGGGSTYYADSVKGRFTISRDNAKNTVYLQMNSLNPEDPAVYSCAAEVVAGYDYSQYYYWGQGTQVTVST | low polyreactivity |
| QVQLVESGGGLVQAGGSLRLSCAASGRIFDHYAMGWYRQAPGKERELVAAINSGGTTNYADSVKGRFTISRDNAKNTVYLQMNSLKPEETAVYYCAARPRKGQYYFGGNYWGQGTQVTVSS | low polyreactivity |
| QVQLVESGGGLVQAGASLRLSSAASGRTFRRNAKRWYRQAAGKERELVAFITGTGSTTYYADSVKGRFTISRDNAKNTVYLQMYSLKPEDTAVYYCAASSKYQDYWGQGTQVTVSS | high polyreactivity |
| QVQLVESGGGLVQAGGSLRLSCAASGSTFSYYDMGWYRQAPGKERELVAAISWNGGTTYYADSVKGRFTISRDNAKNTVYLQMNSLKPEDTAVYYCAATWDFYWAPYDSWGQGTQVTVSS | low polyreactivity |
| QVHLVESGGGLVQAGGSLRLSCAASGFTFLTNAMGWYRQAPGKERELVAAISQSGGRTYYADSVKGRFTISRDNAKNTVYLQMNSLKPEDTAVYYCAAGVRSTGRMDYWGQGTQVTVSS | high polyreactivity |
| QVQLVDSGGGLVQAGGSLRLSCAASGSIFKTYAMGWYRQAPGKERELVATNTRRTGSTYYADSVKGRFTISRDNAMNSVYLQMNSLKPEDPAVYYCAAELYPSWSHTVFHGYNYWGQGTQVTVSS | high polyreactivity |
| QVQLVESGGGLVQAGGSLRLSCAASGSIFAAYTMGWYRQAPGKERELVAAISVSTVSTYYADSVKGRFTISRDNAKNTVYLQMYSLKPEDTAVDYCNADATDSYPEKDEHDSWGQGTQVTVSS | low polyreactivity |
| QVQLVESGGGLVQAGGSLRLICAASGRIYRYYAMGWYRQAPGKERELVAAITSDGRTYYADSVKGRFTISRDNAKNTVYLQMNSLKPEDTAVYYCAADHHSYRYGGYYYWGQGTQVTVSS | low polyreactivity |
| QVQLVESGGGLVQAGGSLRLSCAASGRTFNVNAMGWYRQAPGIERELVATISSAASTNYADSVKGRFTISRDNAKNTVYLQMNSLKPEDTAVYYCNAAFYKEYYYWGQGTQVTVSS | low polyreactivity |
| QDQLVESGGGLVQEGGSLRLSCAASGSTFKNYALGWYRQAPGTERELVAASNVSRARTYYADSVKGRFTLSRDNAKNRVYFQMNSLIPEDTAFYYCAAYYSGVGFDYWGQGTHVTVSS | high polyreactivity |
